Measurements as given in patent US20150299268A1 (UNIVERSITY OF MARYLAND BALTIMORE, published 2015).

How the values were obtained:
[1] = biological target: Env of HIV-1 virus T250-4 (HIV-1); test: cell-based or functional assay
[2] = biological target: Env of HIV-1 virus AC10.0.29 (HIV-1); test: cell-based or functional assay
[3] = biological target: Env of HIV-1 virus ZM53M.PB12 (HIV-1); test: cell-based or functional assay
[4] = biological target: Env of HIV-1 virus 6535.3 (HIV-1); test: cell-based or functional assay
[5] = biological target: Env of HIV-1 virus 1006_11_C3_1601 (HIV-1); test: cell-based or functional assay
[6] = biological target: Env of HIV-1 virus Du172.17 (HIV-1); test: cell-based or functional assay
[7] = biological target: Env of HIV-1 virus Du422.1 (HIV-1); test: cell-based or functional assay
[8] = biological target: Env of HIV-1 virus 3817.v2.c59 (HIV-1); test: cell-based or functional assay
[9] = biological target: Env of HIV-1 virus 6545.v4.c1 (HIV-1); test: cell-based or functional assay
[10] = biological target: Env of HIV-1 virus 6540.v4.c1 (HIV-1); test: cell-based or functional assay
[11] = biological target: Env of HIV-1 virus CAAN5342.A2 (HIV-1); test: cell-based or functional assay
[12] = biological target: Env of HIV-1 virus THRO4156.18 (HIV-1); test: cell-based or functional assay
[13] = biological target: Env of HIV-1 virus SF162.LS (HIV-1); test: cell-based or functional assay
[14] = biological target: Env of HIV-1 virus BaL.26 (HIV-1); test: cell-based or functional assay
BaL-gp120-T162A = biological target: T1, BaL-gp120-T162A (HIV-1 BaL); test: capture ELISA
T1 construct: domain: gp120; glycan mutant

BaL-gp120-P76A = biological target: T2, BaL-gp120-P76A (HIV-1 BaL); test: capture ELISA
T2 construct: domain: gp120

BaL-gp120-E47AE91A = biological target: T3, BaL-gp120-E47AE91A (HIV-1 BaL); test: capture ELISA
T3 construct: domain: gp120

BaL-gp120-E31A = biological target: T4, BaL-gp120-E31A (HIV-1 BaL); test: capture ELISA
T4 construct: domain: gp120

BaL-gp120-Y39A = biological target: T5, BaL-gp120-Y39A (HIV-1 BaL); test: capture ELISA
T5 construct: domain: gp120

BaL-gp120-Y40A = biological target: T6, BaL-gp120-Y40A (HIV-1 BaL); test: capture ELISA
T6 construct: domain: gp120

BaL-gp120-R476AR480A = biological target: T7, BaL-gp120-R476AR480A (HIV-1 BaL); test: capture ELISA
T7 construct: domain: gp120

BaL-gp120-W69A = biological target: T8, BaL-gp120-W69A (HIV-1 BaL); test: capture ELISA
T8 construct: domain: gp120

BaL-gp120-D57A = biological target: T9, BaL-gp120-D57A (HIV-1 BaL); test: capture ELISA
T9 construct: domain: gp120

BaL-gp120-R476A = biological target: T10, BaL-gp120-R476A (HIV-1 BaL); test: capture ELISA
T10 construct: domain: gp120

BaL-gp120-S334A = biological target: T11, BaL-gp120-S334A (HIV-1 BaL); test: capture ELISA
T11 construct: domain: gp120; glycan mutant

BaL-gp120-V75A = biological target: T12, BaL-gp120-V75A (HIV-1 BaL); test: capture ELISA
T12 construct: domain: gp120

BaL-gp120-L494A = biological target: T13, BaL-gp120-L494A (HIV-1 BaL); test: capture ELISA
T13 construct: domain: gp120

BaL-gp120-K487AK490A = biological target: T14, BaL-gp120-K487AK490A (HIV-1 BaL); test: capture ELISA
T14 construct: domain: gp120

BaL-gp120-V496A = biological target: T15, BaL-gp120-V496A (HIV-1 BaL); test: capture ELISA
T15 construct: domain: gp120

BaL-gp120-I420R = biological target: T16, BaL-gp120-I420R (HIV-1 BaL); test: capture ELISA
T16 construct: domain: gp120; also called -1420R

BaL-gp120-F53A = biological target: T17, BaL-gp120-F53A (HIV-1 BaL); test: capture ELISA
T17 construct: domain: gp120

BaL-gp120-K500A = biological target: T18, BaL-gp120-K500A (HIV-1 BaL); test: capture ELISA
T18 construct: domain: gp120

BaL-gp120-D57AD78A = biological target: T19, BaL-gp120-D57AD78A (HIV-1 BaL); test: capture ELISA
T19 construct: domain: gp120

BaL-gp120-Y61A = biological target: T20, BaL-gp120-Y61A (HIV-1 BaL); test: capture ELISA
T20 construct: domain: gp120

BaL-gp120-E47A = biological target: T21, BaL-gp120-E47A (HIV-1 BaL); test: capture ELISA
T21 construct: domain: gp120

BaL-gp120-K33A = biological target: T22, BaL-gp120-K33A (HIV-1 BaL); test: capture ELISA
T22 construct: domain: gp120

BaL-gp120-W45A = biological target: T23, BaL-gp120-W45A (HIV-1 BaL); test: capture ELISA
T23 construct: domain: gp120

BaL-gp120-V68A = biological target: T24, BaL-gp120-V68A (HIV-1 BaL); test: capture ELISA
T24 construct: domain: gp120

BaL-gp120-S158A = biological target: T25, BaL-gp120-S158A (HIV-1 BaL); test: capture ELISA
T25 construct: domain: gp120

BaL-gp120-T303A = biological target: T26, BaL-gp120-T303A (HIV-1 BaL); test: capture ELISA
T26 construct: domain: gp120; glycan mutant, V3 region

BaL-gp120-I491A = biological target: T27, BaL-gp120-I491A (HIV-1 BaL); test: capture ELISA
T27 construct: domain: gp120

BaL-gp120-S200A = biological target: T28, BaL-gp120-S200A (HIV-1 BaL); test: capture ELISA
T28 construct: domain: gp120; also called 5200A

BaL-gp120-V44A = biological target: T29, BaL-gp120-V44A (HIV-1 BaL); test: capture ELISA
T29 construct: domain: gp120

BaL-gp120-E106AD107A = biological target: T30, BaL-gp120-E106AD107A (HIV-1 BaL); test: capture ELISA
T30 construct: domain: gp120

B1: N60-B1.1 (antibody, V domains shown)
VH: QLQLQESGPGLVKPSGTLSLTCSVSGGSMNGRNIYWAWIRQTPGKGLEWIGSVDVSDEDAGRTFYKWPIKSRASISADTSKNQFSLKLSSVTVADTGVYYCARETLYYVGNGYYYPLDVFYYNYYMDVWGKGTTVSVSS
VL: not shown
notes: also called bnAb N60-B1.1
Question: Which “IC50 Titer (ug/ml), neutralization” value [1] does the source give for B1 here?
Answer: Its value is 0.019 µg/mL.

Question: And the “IC50 Titer (ug/ml), neutralization” value [2]?
Answer: Its value is 0.14 µg/mL.

Question: What about the “IC50 Titer (ug/ml), neutralization” value [3] of the same binder?
Answer: The value was 0.019 µg/mL.

Question: What about the “IC50 Titer (ug/ml), neutralization” value [4] of the same binder?
Answer: The value was 0.019 µg/mL.

Question: And the “IC50 Titer (ug/ml), neutralization” value [5]?
Answer: Its value is 0.07 µg/mL.

Question: And the “IC50 Titer (ug/ml), neutralization” value [6]?
Answer: The value was 7.08 µg/mL.

Question: What about the “IC50 Titer (ug/ml), neutralization” value [7] of the same binder?
Answer: Its value is 0.18 µg/mL.

Question: And the “IC50 Titer (ug/ml), neutralization” value [8]?
Answer: The value was 1.53 µg/mL.

Question: What about the “IC50 Titer (ug/ml), neutralization” value [9] of the same binder?
Answer: Its value is 0.37 µg/mL.

Question: What about the “IC50 Titer (ug/ml), neutralization” value [10] of the same binder?
Answer: Its value is 0.08 µg/mL.

Question: What about the “IC50 Titer (ug/ml), neutralization” value [11] of the same binder?
Answer: Its value is 0.019 µg/mL.

Question: What about the “IC50 Titer (ug/ml), neutralization” value [12] of the same binder?
Answer: The value was 0.3 µg/mL.

Question: And the “IC50 Titer (ug/ml), neutralization” value [13]?
Answer: The value was 0.019 µg/mL.

Question: What about the “IC50 Titer (ug/ml), neutralization” value [14] of the same binder?
Answer: Its value is 0.019 µg/mL.

Question: And the “% Binding” value (BaL-gp120-T162A)?
Answer: Its value is 100%.

Question: What about the “% Binding” value (BaL-gp120-P76A) of the same binder?
Answer: The value was 102%.

Question: And the “% Binding” value (BaL-gp120-E47AE91A)?
Answer: Its value is 73%.

Question: And the “% Binding” value (BaL-gp120-E31A)?
Answer: The value was 103%.

Question: What about the “% Binding” value (BaL-gp120-Y39A) of the same binder?
Answer: Its value is 121%.

Question: And the “% Binding” value (BaL-gp120-Y40A)?
Answer: Its value is 139%.

Question: What about the “% Binding” value (BaL-gp120-R476AR480A) of the same binder?
Answer: Its value is 5%.

Question: What about the “% Binding” value (BaL-gp120-W69A) of the same binder?
Answer: Its value is 84%.

Question: What about the “% Binding” value (BaL-gp120-D57A) of the same binder?
Answer: Its value is 98%.

Question: What about the “% Binding” value (BaL-gp120-R476A) of the same binder?
Answer: The value was 57%.

Question: And the “% Binding” value (BaL-gp120-S334A)?
Answer: The value was 91%.

Question: And the “% Binding” value (BaL-gp120-V75A)?
Answer: Its value is 104%.

Question: And the “% Binding” value (BaL-gp120-L494A)?
Answer: The value was 99%.

Question: What about the “% Binding” value (BaL-gp120-K487AK490A) of the same binder?
Answer: The value was 31%.

Question: What about the “% Binding” value (BaL-gp120-V496A) of the same binder?
Answer: The value was 107%.

Question: What about the “% Binding” value (BaL-gp120-I420R) of the same binder?
Answer: Its value is 22%.

Question: What about the “% Binding” value (BaL-gp120-F53A) of the same binder?
Answer: The value was 90%.

Question: And the “% Binding” value (BaL-gp120-K500A)?
Answer: The value was 94%.

Question: And the “% Binding” value (BaL-gp120-D57AD78A)?
Answer: Its value is 103%.

Question: And the “% Binding” value (BaL-gp120-Y61A)?
Answer: The value was 92%.

Question: What about the “% Binding” value (BaL-gp120-E47A) of the same binder?
Answer: The value was 78%.

Question: What about the “% Binding” value (BaL-gp120-K33A) of the same binder?
Answer: The value was 76%.

Question: What about the “% Binding” value (BaL-gp120-W45A) of the same binder?
Answer: The value was 84%.

Question: What about the “% Binding” value (BaL-gp120-V68A) of the same binder?
Answer: The value was 68%.

Question: What about the “% Binding” value (BaL-gp120-S158A) of the same binder?
Answer: The value was 3%.

Question: What about the “% Binding” value (BaL-gp120-T303A) of the same binder?
Answer: Its value is 2%.

Question: What about the “% Binding” value (BaL-gp120-I491A) of the same binder?
Answer: The value was 85%.

Question: And the “% Binding” value (BaL-gp120-S200A)?
Answer: Its value is 22%.

Question: What about the “% Binding” value (BaL-gp120-V44A) of the same binder?
Answer: Its value is 114%.

Question: What about the “% Binding” value (BaL-gp120-E106AD107A) of the same binder?
Answer: Its value is 36%.
